From the MegaScale stability set (Tsuboyama et al. 2023)

B1: EEHEE_rd4_0469 (parent)
chain: ITIHVNGVTYHFDNPEEAEKFAQKMAKTYQLKMEIHNGEFHME
B2: HEEH_KT_rd6_3546 (parent)
chain: SEEDKEREHWERLNRDFELRVLDTTFIAHHAEEVIKLLRWLEK

Variants of: B1
Test: folding stability dG (cDNA display proteolysis); higher = more stable
Conditions: PBS, room temperature

Folding stability dG [kcal/mol], by site and new letter:
H4: D 0.586; E 0.692; F 1.08; A 0.76; C 1.77; G 0.633
I1: C 1.65; R 1.01; H 0.725; L 0.959; Y 1.16; T 0.826; V 1.02; N 0.57; F 1.08; S 0.683; G 0.443; M 0.992; Q 0.734; K 0.846; W 1.32; A 0.749; E 0.225; D 0.302; P 0.64
I3: V 1.35; C 1.55; Q -0.059; Y 0.837; W 0.819; D 0.068; P -0.854; N -0.377; H 0.159; T 0.127; K 0.19; A 0.525; R 0.201; L 0.868; M 0.706; S -0.094; G 0.58; E -0.263; F 0.925
T2: S 1.08; N 1.17; R 1.46; L 1.25; M 1.01; E 0.797; A 0.989; Q 0.972; W 1.47; D 1.13; K 1.31; H 1.51; I 1.24; V 1.13; Y 1.36; C 1.72; F 1.42; P 0.663; G 0.665

Variants of: B2
Test: as above
Conditions: PBS, room temperature

Folding stability dG [kcal/mol] of substitutions, site by site:
K36: Y 1.82; G 1.14; T 1.28; R 1.51; Q 1.23; E 0.928; A 1.56; M 1.93; V 1.87; W 1.87; H 1.24; C 2.09; F 2.13; D 1; I 2.02; N 1.28; P 0.419; S 1.23; L 1.92
E42: D 1.07; Q 1.67; A 1.82; F 2.75; R 1.85; H 1.63; I 2.41; Y 2.57; M 2.4; S 1.84; K 1.69; V 2.26; L 2.42; W 2.59; T 2.1; G 1.7; P 0.291; N 1.56
H30: K 1.13; D 0.85; R 1.07; L 2.38; I 2.09; M 2.34; T 1.72; C 1.6; E 0.893; Y 2.05; G 1.44; Q 1.06; V 2.38; P 0.902; A 2.04; S 1.23; N 1.09; W 2.69; F 2.3
E33: W 2.45; P 0.926; N 1.45; I 2.31; S 1.44; Y 2.16; M 2.06; V 2.06; T 1.47; A 1.74; R 1.46; K 1.62; H 1.41; D 1.34; Q 1.46; G 1.47; F 2.31; L 2.05; C 2.69
K43: R 1.65; G 1.82; D 1.45; E 1.3; N 1.3; F 1.57; V 1.56; P 0.967; A 1.27; Y 1.8; L 1.36; T 1.22; I 1.38; W 2.03; C 1.57; Q 1.36; M 1.5; S 1.2; H 1.17
H29: W 2.01; N 1.3; V 1.61; Y 1.94; T 1.35; P 0.857; S 1.59; Q 1.23; R 1.68
E32: Q 1.29; W 2.1; H 1.42; F 2.21; Y 1.9; G 1.2; S 1.42; K 1.54; D 1.23; V 1.79; N 1.26; P 1.25; L 1.92; C 1.31; R 1.37; M 1.72; T 1.43; I 1.73; A 1.93
W40: G 0.388; M 1.11; D 0.502; I 1.31; C 1.55; S 0.639; H 0.768; E 0.585; P -0.109; V 0.885; N 0.617; T 0.373; R 0.934; Y 1.13; A 0.156; F 1.1; L 1.01; K 0.6; Q 0.781
L41: D -0.253; F 1.38; M 1.22; I 1.14; H 0.356; R 0.586; C 1.83; T 0.442; N -0.295; Q 0.519; K 0.491; A 0.58; S -0.005; Y 0.761; V 1.21; E -0.48; G 0.088; P 0.119; W 1.22
I35: P -0.407; G 0.628; H 0.843; K 0.927; W 1.59; E 0.843; S 0.508; F 1.49; Q 0.925; R 1.12; M 1.33; V 1.17; L 1.47; Y 1.33; A 1.03; T 0.787; N 0.739; D 0.67; C 1.88
A31: P 0.618; W 2.28; G 0.934; M 1.79; Q 0.833; R 1.07; H 0.66; V 2.1; E 0.663; T 1.33; D 0.6; C 2.24; S 0.872; L 1.94; F 1.96; Y 1.61; N 0.698; K 1.09; I 2.19
L38: G -0.072; H 0.371; N 0.045; S 0.079; E -0.1; T 0.188; I 1.09; C 1.78; V 0.9; K 0.405; R 0.8; Q 0.257; Y 0.971; M 0.931; P -0.432; W 1.61; D -0.361; A 0.316; F 1.39
L37: I 1.23; G 0.136; P -0.172; V 0.922; S 0.285; R 0.273; Y 1.23; N 0.031; D -0.437; W 1.63; A 0.846; F 1.62; K 0.138; H 0.36; T 0.61; E -0.07; M 1.09; Q 0.133
V34: S 0.133; T 0.62; E 0.228; W 1.47; Y 1.06; N -0.04; G 0.3; L 1.57; A 1.06; F 1.61; I 1.75; M 1.2; K 0.1; C 1.54; Q -0.202; D 0.006; H 0.255; R 0.162
R39: A 0.866; E 0.969; Q 0.982; I 1.77; H 1.17; V 1.33; L 1.59; F 1.7; S 1.01; N 0.829; D 0.762; Y 1.54; P 0.359; G 0.742; T 1.37; W 1.55; M 1.21; K 1.28
